# Measured values as given in paper PMC9105384, “Ethyl Gallate Dual-Targeting PTPN6 and PPARγ Shows Anti-Diabetic and Anti-Obese Effects” (International Journal of Molecular Sciences, 2022).
# Substrate: Cc1cc(=O)oc2c(F)c(OP(=O)(O)O)c(F)cc12
# Assay: purified protein, by the assay type
# Parameters: DiFMUP hydrolysis by purified PTPs, fluorescence Ex355/Em460, initial rates over 10 min; Michaelis-Menten and Lineweaver-Burk Km
# Procedure: The enzymatic activity of each PTP was evaluated using 6,8-difluoro-4-methylumbelliferyl phosphate (DiFMUP) as the surrogate substrate. To reach within the range of the initial rate (v0) during the measurement for 10 min, the pH and concentration of each PTP were optimized and are listed in Table S3. To determine the Km values, each PTP with optimized concentration was added to the reaction buffer (20 mM Bis-Tris at pH 6.0 or Tris at pH 7.0 and 8.0, 150 mM NaCl, 2.5 mM dithiothreitol (DTT), 0.01% Triton X-100) containing various concentrations of DiFMUP to obtain a final volume of 100 μL in a 96-well plate. Fluorescence intensities were measured once every minute for a complete 10 min duration using a Victor™ X4 Multilabel Plate Reader (Perkin Elmer, Waltham, MA, USA) at excitation/emission = 355 nm/460 nm. The initial rates of the reaction were determined using a previously described procedure for calculating the amount of product formation. To screen a library of 1033 natural products (Chengdu Biopurify Phytochemicals Ltd., Chengdu, China) against 20 PTPs, each PTP with an optimized concentration was added to the reaction buffer with an optimized pH containing DiFMUP (2 × Km for each PTP) after adding each compound (20 μM). […] The IC50 values were estimated using a sigmoid plot in GraphPad Prism 5 software (GraphPad Software Inc., San Diego, CA, USA). The Hill coefficient (nH), the degree of cooperativity, was calculated according to a previously published method. To determine the inhibition constant (Ki) and identify the inhibition mode of EG, various concentrations of EG (2.5, 5, 10, and 20 μM) were assayed with various concentrations of DiFMUP (260, 130, 65, and 32.5 μM). Kinetic parameters were obtained using Dixon plots for Ki and Lineweaver-Burk plots for the inhibition mode.
row,Protein,Km [µM]
1,PTPN3 (Homo sapiens) (protein) MTSRLRALGGRINNIRTSELPKEKTRSEVICSIHFLDGVVQTFKVTKQDTGQVLLDMVHNHLGVTEKEYFGLQHDDDSVDSPRWLEASKAIRKQLKGGFPCTLHFRVRFFIPDPNTLQQEQTRHLYFLQLKMDICEGRLTCPLNSAVVLASYAVQSHFGDYNSSIHHPGYLSDSHFIPDQNEDFLTKVESLHEQHSGLKQSEAESCYINIARTLDFYGVELHSGRDLHNLDLMIGIASAGVAVYRKYICTSFYPWVNILKISFKRKKFFIHQRQKQAESREHIVAFNMLNYRSCKNLWKSCVEHHTFFQAKKLLPQEKNVLSQYWTMGSRNTKKSVNNQYCKKVIGGMVWNPAMRRSLSVEHLETKSLPSRSPPITPNWRSPRLRHEIRKPRHSSADNLANEMTYITETEDVFYTYKGSLAPQDSDSEVSQNRSPHQESLSENNPAQSYLTQKSSSSVSPSSNAPGSCSPDGVDQQLLDDFHRVTKGGSTEDASQYYCDKNDNGDSYLVLIRITPDEDGKFGFNLKGGVDQKMPLVVSRINPESPADTCIPKLNEGDQIVLINGRDISEHTHDQVVMFIKASRESHSRELALVIRRRAVRSFADFKSEDELNQLFPEAIFPMCPEGGDTLEGSMAQLKKGLESGTVLIQFEQLYRKKPGLAITFAKLPQNLDKNRYKDVLPYDTTRVLLQGNEDYINASYVNMEIPAANLVNKYIATQGPLPHTCAQFWQVVWDQKLSLIVMLTTLTERGRTKCHQYWPDPPDVMNHGGFHIQCQSEDCTIAYVSREMLVTNTQTGEEHTVTHLQYVAWPDHGVPDDSSDFLEFVNYVRSLRVDSEPVLVHCSAGIGRTGVLVTMETAMCLTERNLPIYPLDIVRKMRDQRAMMVQTSSQYKFVCEAILRVYEEGLVQMLDPS,2.0
2,PTPN7 (Homo sapiens) (protein) MVQAHGGRSRAQPLTLSLGAAMTQPPPEKTPAKKHVRLQERRGSNVALMLDVRSLGAVEPICSVNTPREVTLHFLRTAGHPLTRWALQRQPPSPKQLEEEFLKIPSNFVSPEDLDIPGHASKDRYKTILPNPQSRVCLGRAQSQEDGDYINANYIRGYDGKEKVYIATQGPMPNTVSDFWEMVWQEEVSLIVMLTQLREGKEKCVHYWPTEEETYGPFQIRIQDMKECPEYTVRQLTIQYQEERRSVKHILFSAWPDHQTPESAGPLLRLVAEVEESPETAAHPGPIVVHCSAGIGRTGCFIATRIGCQQLKARGEVDILGIVCQLRLDRGGMIQTAEQYQFLHHTLALYAGQLPEEPSP,25.5
3,PTPN9 (Homo sapiens) (protein) MEPATAPRPDMAPELTPEEEQATKQFLEEINKWTVQYNVSPLSWNVAVKFLMARKFDVLRAIELFHSYRETRRKEGIVKLKPHEEPLRSEILSGKFTILNVRDPTGASIALFTARLHHPHKSVQHVVLQALFYLLDRAVDSFETQRNGLVFIYDMCGSNYANFELDLGKKVLNLLKGAFPARLKKVLIVGAPIWFRVPYSIISLLLKDKVRERIQILKTSEVTQHLPRECLPENLGGYVKIDLATWNFQFLPQVNGHPDPFDEIILFSLPPALDWDSVHVPGPHAMTIQELVDYVNARQKQGIYEEYEDIRRENPVGTFHCSMSPGNLEKNRYGDVPCLDQTRVKLTKRSGHTQTDYINASFMDGYKQKNAYIGTQGPLENTYRDFWLMVWEQKVLVIVMTTRFEEGGRRKCGQYWPLEKDSRIRFGFLTVTNLGVENMNHYKKTTLEIHNTEERQKRQVTHFQFLSWPDYGVPSSAASLIDFLRVVRNQQSLAVSNMGARSKGQCPEPPIVVHCSAGIGRTGTFCSLDICLAQLEELGTLNVFQTVSRMRTQRAFSIQTPEQYYFCYKAILEFAEKEGMVSSGQNLLAVESQ,110
